Results as given in US20260347495 (published 2026).

B1: OMT35 (clone 35) (antibody, V domains shown)
VH: QVQLQQSGPGLVKPSQTLSLTCAISGDSVSSNSAAWNWIRQSPSSGLEWLGRTYYRSKWFDDYAVSVKGRITINPDTSKNQFSLQLKFVIPEDTAVYYCARRVHWGGPFDYWGQGTLVTVSS
VL: DIQLTQSPSFLSASVGDRVTITCRASQGISSYLAWYQQRPGKAPKVLISVASTLQSGVPSRFSGSGSGTDFTLTISSLQPEDFATYYCQQLTGYPFTFGPGTKVDIK
B2: OMT8 (clone 8) (antibody, V domains shown)
VH: QVQLQESGPGLVKPSQTLSLTCTVSGGSISSGGYYWSWIRQHPGKGLEWIGYIHYIGSTYQNPSLKSRVTMSVDTSKNQFSLRLTSVTAADTAVYYCARESGDTAMVFDYWGQGTQVTVSS
VL: QSALTQPPSASGSPGQSVTISCTGTSSDVGGYNYVSWYQQHPGKAPKVMIYEVSTRPSGVPDRFSGSKSGNTASLTVSGLQAEDEADYYCSSYAGNNNFVFGTGTKVTVL
B3: OMT24 (clone 24) (antibody, V domains shown)
VH: QVQLVQSGSELKKPGASVKVSCKASGYTFTTYVMNWVRQAPGQGLEWMGWINTNTGNPTYAQGFTGRFVFSVDTSVSTAYLQISSLKAEDTAVYYCARDRVLLWFGAGYYHYGMDVWGQGTTVTVSS
VL: SSELTQDPAVSVALGQTVRITCQGDSLRSYYTSWYQQKPGQAPVFVIYGKNNRPSGIPDRFSGSSSGNTASLTITGAQAEDEADYYCNSRDSSGNHVVFGGGTKLTVL
B4: OMT30 (clone 30) (antibody, V domains shown)
VH: QVQLVESGGGVVQPGRSLRLSCAASGFTFSSYGIHWVRQAPGKGLEWVAVIWYDGSNKYYADSVKGRFTISRDNSKNTLYLQMNSLRAEDTAVYYCARRGDSSSWHFDYWGQGTLVTVSS
VL: QSALTQPASVSGSPGQSITISCTGTSSDVGRHNLVSWYQQHPGKVPKVMIYEVTKRPAGVSNRFSGSKSGNTASLTISGLQAEDEADYYCCSYAGSSTYVFGTGTRVTVL
B5: OMT36 (clone 36) (antibody, V domains shown)
VH: QVQLVQSGAEVKKPGASVKVSCKASGYTFTNYDINWVRQATGQGLEWMGWMNPNSGNTDYVQKFQGRVAMTRITSISTAYLELSSLRSDDTAVYYCARGLHSGDYYSYGMDVWGQGTTVTVSS
VL: SYELTQPPSVSVSPGQTARITCSGDALPNQYAYWYQQKPGQAPVLVIYKDSERPSGIPERFSGSSSGTTVTLTISGVQAEDEADYYCQSADSSGTVVFGGGTKLSVL

How the values were obtained:
[1] = molecular target: lactotransferrin (human, UniProt P02788); test: ELISA
[2] = molecular target: transferrin (human, UniProt P02787); test: ELISA
Sequence of transferrin (P02787 20-698): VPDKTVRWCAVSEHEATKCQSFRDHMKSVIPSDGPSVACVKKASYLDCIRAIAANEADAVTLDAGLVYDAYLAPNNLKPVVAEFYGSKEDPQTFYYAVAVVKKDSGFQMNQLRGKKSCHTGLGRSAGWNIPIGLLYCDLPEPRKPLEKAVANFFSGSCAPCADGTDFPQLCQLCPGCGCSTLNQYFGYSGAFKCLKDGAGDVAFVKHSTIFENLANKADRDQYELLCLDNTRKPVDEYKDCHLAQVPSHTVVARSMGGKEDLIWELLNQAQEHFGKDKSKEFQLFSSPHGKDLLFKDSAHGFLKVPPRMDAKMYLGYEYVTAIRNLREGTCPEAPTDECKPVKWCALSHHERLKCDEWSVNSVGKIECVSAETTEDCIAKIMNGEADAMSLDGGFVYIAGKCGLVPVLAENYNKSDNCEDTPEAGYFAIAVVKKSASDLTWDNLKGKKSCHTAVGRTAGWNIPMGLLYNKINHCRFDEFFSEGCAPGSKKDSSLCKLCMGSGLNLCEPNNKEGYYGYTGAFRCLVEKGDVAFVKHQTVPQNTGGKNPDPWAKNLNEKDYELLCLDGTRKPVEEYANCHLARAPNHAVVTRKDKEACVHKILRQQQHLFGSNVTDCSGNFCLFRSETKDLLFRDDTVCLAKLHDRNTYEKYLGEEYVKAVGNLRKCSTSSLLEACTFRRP

Sequence of lactotransferrin (P02788 20-710): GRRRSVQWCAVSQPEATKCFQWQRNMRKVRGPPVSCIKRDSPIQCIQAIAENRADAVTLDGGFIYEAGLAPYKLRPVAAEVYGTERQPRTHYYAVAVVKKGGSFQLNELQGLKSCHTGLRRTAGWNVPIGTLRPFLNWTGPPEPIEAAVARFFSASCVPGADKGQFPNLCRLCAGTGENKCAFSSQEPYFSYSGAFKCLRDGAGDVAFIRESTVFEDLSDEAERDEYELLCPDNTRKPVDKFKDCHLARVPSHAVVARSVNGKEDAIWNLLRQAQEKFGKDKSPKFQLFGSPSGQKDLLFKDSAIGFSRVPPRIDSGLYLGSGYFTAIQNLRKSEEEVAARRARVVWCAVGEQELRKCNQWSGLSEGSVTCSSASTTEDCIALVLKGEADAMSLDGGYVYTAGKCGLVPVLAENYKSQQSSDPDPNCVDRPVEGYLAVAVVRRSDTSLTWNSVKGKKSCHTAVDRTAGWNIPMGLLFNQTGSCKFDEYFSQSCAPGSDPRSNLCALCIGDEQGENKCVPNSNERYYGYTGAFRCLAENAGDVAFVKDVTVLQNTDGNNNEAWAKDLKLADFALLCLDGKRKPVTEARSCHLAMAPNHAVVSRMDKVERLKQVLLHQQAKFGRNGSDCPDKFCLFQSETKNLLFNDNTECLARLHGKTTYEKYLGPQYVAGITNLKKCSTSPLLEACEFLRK

Row | Binder | binding result [1] | binding result [2]
1 | B1 | no binding | no binding
2 | B2 | no binding | no binding
3 | B3 | no binding | no binding
4 | B4 | no binding | no binding
5 | B5 | no binding | no binding
